# Source: the RNAGym collection of RNA variant scans (doi:10.7554/elife.90254)
# B1: OR4K15 (parent)
# chain: GUUAACGGUCAUAGGCCAUGGAAACUAGGAGCACCAUUUCGCUGCCAGUGAAGAAAUGAACAAAGAAAAUCUGGGCCAGGCAGGCAUCAAAAGAAAUAGUCUUGCGCUCAACCAGAAAGUCUGUAAUCAUUUUAAGGGUA
# Variants of: B1
# Assay: self-cleavage, relative activity (ratio to wild type); higher = more cleavage; in vitro, sequencing; the parent is a self-cleaving ribozyme
row,Variant,self-cleavage
1,GUUAACGGUCAUAGGCCAUGGAAACUAGGAGCACCAUUUCGCUGCCAGUGAAGAAAUGAACAGAGAAAAUCUGGGCCAGGCAGGCAUCAAAAGAAAUAGUCUUGCGCUCAACCAGAAAGUCUGUAAUCAUUUUAUGGGUA [A63G A135U],0.04
2,GUUAACGGUCAUAGGCCAUGGAAACUAGGAGCACCAUUUCGCUGCCAGUGAAGAAAUGAACAGAGAAAAUCUGGGCCAGGCAGGCAUCAAAAGAAAUAGUCUUGCGCUCAACCAGAAAGUCUGUAAUCAUUUUAGGGGUA [A63G A135G],1.35
3,GUUAACGGUCAUAGGCCAUGGAAACUAGGAGCACCAUUUCGCUGCCAGUGAAGAAAUGAACAGAGAAAAUCUGGGCCAGGCAGGCAUCAAAAGAAAUAAUCUUGCGCUCAACCAGAAAGUCUGUAAUCAUUUUAAGGGUA [A63G G99A],0.76
4,GUUAACGGUCAUAGGCCAUGGAAACUAGGAGCACCAUUUCGCUGCCAGUGAAGAAAUGAACAGAGAAAAUCUGGGCCAGGCAGGCAUCAAAAGAAAUAGUCUUGCGCUCAUCCAGAAAGUCUGUAAUCAUUUUAAGGGUA [A63G A111U],0.18
5,GUUAACGGUCAUAGGCCAUGGAAACUAGGAGCACCAUUUCGCUGCCAGUGAAGAAAUGAACAGAGAAAAUCUGGGCCAGGCAGGCAUCAAAAGAAAUAGUCUUGCGGUCAACCAGAAAGUCUGUAAUCAUUUUAAGGGUA [A63G C107G],0.01
6,GUUAACGGUCAUAGGCCAUGGAAACUAGGAGCACCAUUUCGCUGCCAGUGAAGAAAUGAACAGAGAAAAUCUGGGCCAGGCAGGCAUCAAAAGAAAUAGUCUUGCGUUCAACCAGAAAGUCUGUAAUCAUUUUAAGGGUA [A63G C107U],0.01
7,GUUAACGGUCAUAGGCCAUGGAAACUAGGAGCACCAUUUCGCUGCCAGUGAAGAAAUGAACAGAGAAAAUCUGGGCCAGGCAGGCUUCAAAAGAAAUAGUCUUGCGCUCAACCAGAAAGUCUGUAAUCAUUUUAAGGGUA [A63G A86U],2.04
8,GUUAACGGUCAUAGGCCAUGGAAACUAGGAGCACCAUUUCGCUGCCAGUGAAGAAAUGAACAGAGAAAAUCUGGGCCAGGCAGGCAUCAAAAGAAGUAGUCUUGCGCUCAACCAGAAAGUCUGUAAUCAUUUUAAGGGUA [A63G A96G],1.4
9,GUUAACGGUCAUAGGCCAUGGAAACUAGGAGCACCAUUUCGCUGCCAGUGAAGAAAUGAACACAGAAAAUCUGUGCCAGGCAGGCAUCAAAAGAAAUAGUCUUGCGCUCAACCAGAAAGUCUGUAAUCAUUUUAAGGGUA [A63C G74U],0.15
10,GUUAACGGUCAUAGGCCAUGGAAACUAGGAGCACCAUUUCGCUGCCAGUGAAGAAAUGAACACAGAAAAUCUGGGCCAGGCAUGCAUCAAAAGAAAUAGUCUUGCGCUCAACCAGAAAGUCUGUAAUCAUUUUAAGGGUA [A63C G83U],0.83
11,GUUAACGGUCAUAGGCCAUGGAAACUAGGAGCACCAUUUCGCUGCCAGUGAAGAAAUGAACAGAGAAAAUCUGGGCCAGGCAGGCAUCAAAAGAAAUAGUCUUGCGCUCAACCAGAAAGUCUGUAUUCAUUUUAAGGGUA [A63G A126U],0.57
12,GUUAACGGUCAUAGGCCAUGGAAACUAGGAGCACCAUUUCGCUGCCAGUGAAGAAAUGAACAGAGAAAAUCUGGGCCAGGCAGGCAUCAAAAGAAAUAGUCUUGCGCUCAACCAGAAAGUCUGUAGUCAUUUUAAGGGUA [A63G A126G],1.13
13,GUUAACGGUCAUAGGCCAUGGAAACUAGGAGCACCAUUUCGCUGCCAGUGAAGAAAUGAACAGAGAAAAUCUGGGCCAGGCAGGCAUCAAUAGAAAUAGUCUUGCGCUCAACCAGAAAGUCUGUAAUCAUUUUAAGGGUA [A63G A91U],2.36
14,GUUAACGGUCAUAGGCCAUGGAAACUAGGAGCACCAUUUCGCUGCCAGUGAAGAAAUGAACAGAGAAAAUCUGGGCCAGGCAGGCAUCAAAAGAAAUAGUCUUGCGCUCUACCAGAAAGUCUGUAAUCAUUUUAAGGGUA [A63G A110U],1.88
15,GUUAACGGUCAUAGGCCAUGGAAACUAGGAGCACCAUUUCGCUGCCAGUGAAGAAAUGAACAGAGAAAAUCUGGGCCAGGCAGGCAUCAAAAGAAAUAGUCUUGCGCUCGACCAGAAAGUCUGUAAUCAUUUUAAGGGUA [A63G A110G],0.15
16,GUUAACGGUCAUAGGCCAUGGAAACUAGGAGCACCAUUUCGCUGCCAGUGAAGAAAUGAACAGAGAAAAUCUGGGCCAGGCAGGCAUCAAAAGAAAUAGUCUUGCGCUCCACCAGAAAGUCUGUAAUCAUUUUAAGGGUA [A63G A110C],0.38
17,GUUAACGGUCAUAGGCCAUGGAAACUAGGAGCACCAUUUCGCUGCCAGUGAAGAAAUGAACAGAGAAAAUCUGGGCCAGGCAGGCAUCAAAAGUAAUAGUCUUGCGCUCAACCAGAAAGUCUGUAAUCAUUUUAAGGGUA [A63G A94U],0.98
18,GUUAACGGUCAUAGGCCAUGGAAACUAGGAGCACCAUUUCGCUGCCAGUGAAGAAAUGAACAGAGAAAAUCUGGGCCAGGCAGGCAUCAAAAGAAAUUGUCUUGCGCUCAACCAGAAAGUCUGUAAUCAUUUUAAGGGUA [A63G A98U],2.55
19,GUUAACGGUCAUAGGCCAUGGAAACUAGGAGCACCAUUUCGCUGCCAGUGAAGAAAUGAACAGAGAAAAUCUGGGCCAGGCAGGCAUCAAAAGAAAUAGUCUUGCGCUCAACCAGAACGUCUGUAAUCAUUUUAAGGGUA [A63G A118C],1.42
20,GUUAACGGUCAUAGGCCAUGGAAACUAGGAGCACCAUUUCGCUGCCAGUGAAGAAAUGAACAGAGAAAAUCUGGGCCAGGCAGGCAUCAAAAGAAAUAGUCUUGCGCUCAACCAGAAAGUCUGUAAUCAUUUUAAGGGUA [A63G],1.41
21,GUUAACGGUCAUAGGCCAUGGAAACUAGGAGCACCAUUUCGCUGCCAGUGAAGAAAUGAACACAGAAAAUCUGGGCCAAGCAGGCAUCAAAAGAAAUAGUCUUGCGCUCAACCAGAAAGUCUGUAAUCAUUUUAAGGGUA [A63C G79A],0.09

row,Variant,self-cleavage
1,GUUAACGGUCAUAGGCCAUGGAAACUAGGAGCACCAUUUCGCUGCCAGUGAAGAAAUGAACAGAGAAAAUCUGGGCCAGGCAGGCAUCAAAAGAAAUAGUCUUGCGCUAAACCAGAAAGUCUGUAAUCAUUUUAAGGGUA [A63G C109A],0.55
2,GUUAACGGUCAUAGGCCAUGGAAACUAGGAGCACCAUUUCGCUGCCAGUGAAGAAAUGAACAGAGAAAAUCUGGGCCAGGCAGGCAUCAAAAGAAAUAGUCUUGCGCUUAACCAGAAAGUCUGUAAUCAUUUUAAGGGUA [A63G C109U],0.69
3,GUUAACGGUCAUAGGCCAUGGAAACUAGGAGCACCAUUUCGCUGCCAGUGAAGAAAUGAACAGAGAAAAUCUGGGCCAGGCAGGCAUCAAAUGAAAUAGUCUUGCGCUCAACCAGAAAGUCUGUAAUCAUUUUAAGGGUA [A63G A92U],1.35
4,GUUAACGGUCAUAGGCCAUGGAAACUAGGAGCACCAUUUCGCUGCCAGUGAAGAAAUGAACAGGGAAAAUCUGGGCCAGGCAGGCAUCAAAAGAAAUAGUCUUGCGCUCAACCAGAAAGUCUGUAAUCAUUUUAAGGGUA [A63G A64G],1.37
5,GUUAACGGUCAUAGGCCAUGGAAACUAGGAGCACCAUUUCGCUGCCAGUGAAGAAAUGAACAGUGAAAAUCUGGGCCAGGCAGGCAUCAAAAGAAAUAGUCUUGCGCUCAACCAGAAAGUCUGUAAUCAUUUUAAGGGUA [A63G A64U],1.62
6,GUUAACGGUCAUAGGCCAUGGAAACUAGGAGCACCAUUUCGCUGCCAGUGAAGAAAUGAACAGAGAAAAUCUGGGCCAGGCAGGCAUCAAAAGAAAUAGUCUUGCGCUCAACCAGUAAGUCUGUAAUCAUUUUAAGGGUA [A63G A116U],0.57
7,GUUAACGGUCAUAGGCCAUGGAAACUAGGAGCACCAUUUCGCUGCCAGUGAAGAAAUGAACAGAGAAAAUCUGGGCCAGGCAGGCAUCAAAAGAAAUAGUCUUGCGCUCAACCAGCAAGUCUGUAAUCAUUUUAAGGGUA [A63G A116C],0.13
8,GUUAACGGUCAUAGGCCAUGGAAACUAGGAGCACCAUUUCGCUGCCAGUGAAGAAAUGAACAGAGAAAAUCUGGGCCAGGCAGGCAUCAAAAGAAAUAGUCUUGCGCUCAACCAGAGAGUCUGUAAUCAUUUUAAGGGUA [A63G A117G],1.69
9,GUUAACGGUCAUAGGCCAUGGAAACUAGGAGCACCAUUUCGCUGCCAGUGAAGAAAUGAACAGAGAAAAUCUGGGCCAGGCAGGCAUCAAAAGAAAUAGUCUUGCGCUCAACCAGAAAGUCUGUAAUCAUUUUGAGGGUA [A63G A134G],1.47
10,GUUAACGGUCAUAGGCCAUGGAAACUAGGAGCACCAUUUCGCUGCCAGUGAAGAAAUGAACAGAGAAAGUCUGGGCCAGGCAGGCAUCAAAAGAAAUAGUCUUGCGCUCAACCAGAAAGUCUGUAAUCAUUUUAAGGGUA [A63G A69G],1.04
11,GUUAACGGUCAUAGGCCAUGGAAACUAGGAGCACCAUUUCGCUGCCAGUGAAGAAAUGAACAGAGAAAAUCUGGGCCAGGCAGGCAUCAAAAGAAAUAGUCUUGCGCUCAACCAGAAAGUCUGUAAUCAUUUUAAGGGUG [A63G A140G],2.02
12,GUUAACGGUCAUAGGCCAUGGAAACUAGGAGCACCAUUUCGCUGCCAGUGAAGAAAUGAACAGAGAAAAUCUGGGCCAGGCAGGCAUCAAAAGAAAUAGUCUUGCGCUCAACCAGAAAGUCUGUAAUCAUUUUAAGGGUU [A63G A140U],1.52
13,GUUAACGGUCAUAGGCCAUGGAAACUAGGAGCACCAUUUCGCUGCCAGUGAAGAAAUGAACAGAGUAAAUCUGGGCCAGGCAGGCAUCAAAAGAAAUAGUCUUGCGCUCAACCAGAAAGUCUGUAAUCAUUUUAAGGGUA [A63G A66U],1.49
14,GUUAACGGUCAUAGGCCAUGGAAACUAGGAGCACCAUUUCGCUGCCAGUGAAGAAAUGAACAGAGAAAAUCUGGGCCAGGCAGGUAUCAAAAGAAAUAGUCUUGCGCUCAACCAGAAAGUCUGUAAUCAUUUUAAGGGUA [A63G C85U],1.21
15,GUUAACGGUCAUAGGCCAUGGAAACUAGGAGCACCAUUUCGCUGCCAGUGAAGAAAUGAACAGAGAAAAUCUGGGCCAGGCAGGCAUCAAAAGAAAUAGUCUUGCGCUCAACCAGAAAGUCUGUCAUCAUUUUAAGGGUA [A63G A125C],1.23
16,GUUAACGGUCAUAGGCCAUGGAAACUAGGAGCACCAUUUCGCUGCCAGUGAAGAAAUGAACAGAGAAAAUCUGGGCCAGGCAGGCAUCAAAAGAAAUAGUAUUGCGCUCAACCAGAAAGUCUGUAAUCAUUUUAAGGGUA [A63G C101A],0.32
17,GUUAACGGUCAUAGGCCAUGGAAACUAGGAGCACCAUUUCGCUGCCAGUGAAGAAAUGAACAGAGAAAAUCUGGGCCAGGCAGGCAUCGAAAGAAAUAGUCUUGCGCUCAACCAGAAAGUCUGUAAUCAUUUUAAGGGUA [A63G A89G],1.89
18,GUUAACGGUCAUAGGCCAUGGAAACUAGGAGCACCAUUUCGCUGCCAGUGAAGAAAUGAACAGAGAAAAUCUGGGCCAGGCAGGCAUCUAAAGAAAUAGUCUUGCGCUCAACCAGAAAGUCUGUAAUCAUUUUAAGGGUA [A63G A89U],1.13
19,GUUAACGGUCAUAGGCCAUGGAAACUAGGAGCACCAUUUCGCUGCCAGUGAAGAAAUGAACAGAGAAAAUCUGGGCCAGGCAGGCAUCAGAAGAAAUAGUCUUGCGCUCAACCAGAAAGUCUGUAAUCAUUUUAAGGGUA [A63G A90G],1.6
20,GUUAACGGUCAUAGGCCAUGGAAACUAGGAGCACCAUUUCGCUGCCAGUGAAGAAAUGAACACAGAAAAUCUGGGCCAGGCAGGCAUCAAAAGAAAUAGUCUUGCGCUCAACCAGAAAGUCUGUAAUCAUCUUAAGGGUA [A63C U131C],1.99
